B1: aptamer 6.8 (ssDNA)
DNA: GCAATGGTACGGTACTTCCCGGGGCGGGCTGTCATGCCCATCCTACCGTGACCGCAAAAGTGCACGCTACTTTGCTAA
B2: aptamer 6.9 (ssDNA)
DNA: GCAATGGTACGGTACTTCCATGGCTGGTGCTTGAGGTGTGTGTGGGGGTAGGGCCAAAAGTGCACGCTACTTTGCTAA

Molecular target: SARS-CoV-2 spike protein (SARS-CoV-2, UniProt P0DTC2 14-1213)
Assay: ELONA; binding buffer 50 mM HEPES pH 7.4, 100 mM NaCl, 5 mM KCl, 2 mM MgCl2, 1 mM CaCl2; […]
Conditions: protein: recombinant, chain copies: 3, label: biotin

Binder	binding result (predicted partial stem-loops)	binding result
B1	no binding	–
B2	–	no binding

Reference: article PMC11117632, “Rapid and Sensitive Detection of Inactivated SARS-CoV-2 Virus via Fiber-Optic and Electrochemical Impedance Spectroscopy Based Aptasensors”
